# Assay results reported in US20200216824A1, “REGULATING PROTEIN SPONTANEOUS RUPTURES” (Bowling Green State University, priority 2019, published 2020).
# Entries after “also recorded” stand apart in the source; their conditions may differ.
# B1: 6-hydroxymethyl-7,8-dihydropterin pyrophosphokinase (protein, UniProt P26281 2-159, looked up)
# 2-amino-4-hydroxy-6-hydroxymet …: TVAYIAIGSNLASPLEQVNAALKALGDIPESHILTVSSFYRTPPLGPQDQPDYLNAAVALETSLAPEELLNHTQRIELQQGRVRKAERWGPRTLDLDIMLFGNEVINTERLTVPHYDMKNRGFMLWPLFEIAPELVFPDGEMLRQILHTRAFDKLNKW
# notes: 158-residue monomer kinase enzyme protein
# Columns and labels:
# calmodulin (CaM) = calmodulin (CaM) (Homo sapiens, UniProt P0DP23); assay: Effect of Ca2+ / EGTA on CaM rupture under AFM compressive force; conditions: 1 mM CaCl2 for Ca2+; 2 mM EGTA buffer treatment
# Description: (§1) In the experiment of compressive force manipulation on both Apo- and Ca^2+-ligated CaM, a modified AFM apparatus with an ultra-soft AFM tip was used to apply compressive force on a single protein molecule tethered to a glass coverslip through covalent bonding between the linker molecule and amino group of the protein, and its response was studied.
# The same experiment was carried out on Ca^2+-ligated CaM. FIG. 14B represents the typical AFM compressive force curve on a Ca^2+-ligated single CaM molecule. […] Nevertheless, repeated rupture events on a single protein molecule have been noticed when a repeated force manipulation experiment on the same protein molecule has been carried out.
# FIG. 29 illustrates the scheme of tethering single protein molecules on a cover glass surface. The cover glass (Gold Seal) was first cleaned and silanized with a mixture of (3-aminopropyl) trimethoxysilane, isobutyltrimethoxysilane with a ratio of 1:1000 dissolved in DMSO (10% v/v) for 12 hours, and then incubated in 10 nM dimethyl suberimidate in 50 mM PBS (pH 8.0) for 4 h. After washing with water and methanol, the glass slide was incubated in 10 nM CaM solutions (PBS, pH 7.4) for 4 h. […]
# Typical compressive force curves were recorded under different conditions. […]
# tau protein = tau protein (Homo sapiens, UniProt P10636); assay: Effect of cations on tau protein rupture under AFM compressive force; conditions: buffer solution pH 7.4
# tau protein, sequence (P10636 1-441 isoform P10636-8): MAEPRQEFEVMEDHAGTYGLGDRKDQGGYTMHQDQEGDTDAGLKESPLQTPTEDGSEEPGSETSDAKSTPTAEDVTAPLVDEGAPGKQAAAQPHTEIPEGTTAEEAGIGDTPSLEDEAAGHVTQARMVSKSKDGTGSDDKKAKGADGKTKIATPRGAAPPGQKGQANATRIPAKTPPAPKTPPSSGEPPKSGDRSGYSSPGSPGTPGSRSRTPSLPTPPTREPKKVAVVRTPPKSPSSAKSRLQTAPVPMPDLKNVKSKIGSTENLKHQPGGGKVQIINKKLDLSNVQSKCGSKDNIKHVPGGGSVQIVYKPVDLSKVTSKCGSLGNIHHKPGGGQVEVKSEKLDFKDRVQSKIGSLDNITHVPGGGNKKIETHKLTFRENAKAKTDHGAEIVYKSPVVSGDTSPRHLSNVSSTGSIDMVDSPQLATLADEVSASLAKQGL
# Description: This gives the indication of the presence of two forms of tau protein under different ionic environment. Under K^+environment tau protein exists as a relatively rigid protein structure which is more prone to collapse under compressive force build up. […] In addition, it was also investigated whether this kind of spontaneous and simultaneous rupture of multiple proteins under close proximity can develop an entangled protein third state, a fusion state, and can be a plausible mechanism for protein aggregation.
# The protein molecules were tethered to the cover glass through covalent bonding between the amine group of the protein and the linker molecule attached to the coverglass surface. All the force curves were recorded under buffer solution (pH 7.4). When the AFM tip apex touches the surface of the protein molecule it starts loading force on it, once the force reaches a threshold value it can no longer withhold the force and collapses (FIG. 16A). This kind of behavior exists in globular proteins such as HPPK, calmodulin, and others.
# Without wishing to be bound by theory, it is believed that there is a comprehensive model for two types of protein structure responses under compressive forces (FIG. 18C, green curve). One is a balloon-like type, reflected by the stress-strain curve in FIG. 18C, which is more rigid in nature and show rupture under compressive force. […]
# [1] = AFM compressive force rupture of single CaM molecules (CaM, Apo-CaM, Ca2+-ligated CaM); format: physicochemical
# Description: The mean rupture force from the distributions are 25 pN and 47 pN for CaM and HPPK molecules, respectively. ΔG was also calculated for CaM rupture, which is about 25.6±7.3 kBT using Bell-Evans Model. The characteristic behavior is due to different structural rigidity and a different vector orientation of the mechanical force inside different protein molecules.
# The experiments for CaM protein were repeated under five different ALRs. FIGS. 11A-11E show the statistical distribution of the threshold force at five different ALRs and characterization of CaM rupture force and loading energy. FIGS. 11A-11E show the rupture threshold force distribution in different loading velocities. […] Loading velocity is 100 nm/s. The threshold force required for a single CaM protein molecule to rupture increases from 12 pN to 35 pN as the approaching velocity increases from 50 nm/s to 1000 nm/s, and the threshold force increases linearly along with the log of ALR (FIG. 8D).
# as §1
# From this distribution, the rupture force was calculated to be around 70 pN. This rupture force is dependent on the AFM tip approaching velocity. To calculate the actual threshold force loading distance, i.e., the amount of structural change of the targeted Apo-CaM molecule under the process of compressive force loading to the threshold value, the force curves were analyzed considering two factors. First, the force loading process causes the tip bending. Because of that, the distance traveled by the electropiezo scanner exceeds the distance traveled by the AFM tip apex. The amount of tip bending in the process of force loading can be easily taken in account considering the force constant of the cantilever (30 pN/nm). Second, the contribution of the hydration shell around a protein molecule (1-2 nm of width) was considered. Therefore, in the recorded force curves, force increases in a much slower rate at the beginning which corresponds to the AFM tip interaction with the outer solvation layer of the protein. In the latter part of the force curve, the force increases in a much faster manner as the AFM tip starts to interact with the protein surface directly. Without wishing to be bound by theory, it is believed that the contact occurs when the compressive force loaded by the AFM tip reaches a certain value to counter the water solvation layer. […]
# It is the distance between the point where force loading starts and the point where protein rupture occurs. […] The loading energy was calculated using Eloading=∫F(l)dl, where l is the compressive force loading distance, and F(l) is the loading force. […] Under this approximation, distribution of the calculated threshold compressive force loading energy was plotted in FIG. 15D using Eloading=(F threshold/2)×lthreshold and the mean value was around 32 kBT; however, the energy can be as low as 10 kBT with significant probability, which is biologically accessible from the local thermal fluctuations, such as in living mammalian cells at 37° C.
# The loading energy was calculated using Eloading=J F(l)dl. l is the compressive force loading distance, and F(l) is the loading force curve. […]
# [2] = AFM-FRET compressive force rupture of single HPPK molecules; format: physicochemical
# Description: 6-hydroxymethyl-7,8-dihydropterin pyrophosphokinase (HPPK) is a 158-residue monomer kinase enzyme protein which acts as a catalyst in the pyrophosphorylation reaction that drives the conversion of 6-hydroxymethyl-7,8-dihydropterin (HP) to 6-hydroxymethyl-7,8-dihydropterin pyrophosphate (HPPP) in the presence of ATP leading to the biosynthesis of folate cofactors. AFM was used to apply the compressive force on single protein molecules that are tethered on the glass cover slip surface at a controlled low density for single-molecule measurements. The enzyme HPPK was labeled with Cy3/Cy5 donor acceptor FRET pair on the amino acid residues 88 and 142, respectively (FIG. 2A), for probing the conformational changes of single protein under the compressive force.
# The structural rupture of a single HPPK protein under compressive force applied by AFM tip was evaluated. […] When the AFM tip touches a single protein molecule, a compressive force is applied on the targeted protein, the force monotonically increases up to the level of about 60 pN (FIG. 1E), and then the force drops to zero abruptly.
# As the piezo continues to approach toward the surface, the compressive force on the protein molecule increases; simultaneously, the protein starts to deform. When the force reaches a threshold value, the protein molecule suddenly ruptures, and the force on the tip releases to zero. As the AFM piezo continues to approach the glass coverslip surface, the tip on glass cannot move anymore, and as a result, piezo displacement causes tip bending. Therefore, from top to bottom, the cantilever bending distance=the piezo displacement D (nm); and the direct AFM instrumental electronic signal was measured and recorded for the loading force, F (mV). If the cantilever force constant k (pN/nm) is known, then, from the reading of measured f (mV), the protein rupture threshold force (pN)=[…] can be calculated.
# To evaluate the relation between the compressive threshold force and the tip approaching velocity, the experiment was repeated under different approaching velocities (FIGS. 8-9). The threshold force for a single protein HPPK rupture increases as the apparent loading rate (ALR) by the AFM tip increases (FIG. 8B). ALR equals the approaching velocity times the force constant of AFM cantilever.
# A two-state theoretical model, the Bell-Evans theory (eqn. 3), was used to analyze the linear dependence of rupture force with the logarithm of loading rate (FIG. 8B):
# where F(r) is the most probable rupture force; kB, the Boltzmann's constant; T, temperature in Kelvin; Xβ is the distance between the bonded state and the transition state where the activation barrier is located; r, the loading rate; and ko the off-rate constant at zero force. The fitting gives two model parameters, kinetic off rate constant ko=12.2±4.5 s^−1 and the distance from the bound to transition state, Xβ=0.34±0.05 nm. Using ko, the barrier height of the transition state (ΔG) was also calculated using the following equation (eqn. 4), where h is the Planck's constant. ΔG of HPPK protein rupture is 27.0±9.8 kBT.
# The cover glass (Gold Seal) was first cleaned and silanized with a mixture of (3-aminopropyl) trimethoxysilane and isobutyltrimethoxysilane with a ratio of 1:10000 dissolved in DMSO (10% v/v) for 12 hours, and then incubated in 10 nM dimethyl suberimidate in 50 mM PBS (pH 8.0) for 4 h. After washing by water and methanol, the glass slide was incubated in 10 nM HPPK solutions (PBS, pH 7.4) for 4 h. The possibility of two protein molecules locating underneath the AFM tip or in the same laser focus spot of around 300 nm diameters is almost zero. Cy3-Cy5 labeled HPPK molecules were tethered randomly on a cover glass surface and then incubated in PBS buffer (pH=7.4) in a homemade chamber immobilized on top of the microscope. To decrease photobleaching, added 0.8% D-glucose, 1 mg/mL glucose oxidase, 0.04 mg/mL catalase, and about 1 mM Trolox were added in the buffer as an oxygen scavenger. […]
molecule,measurement,setting,value
[Ca+2] [Ca^2+],rupture event of CaM under compressive force in presence of / after treatment with the substance,calmodulin (CaM),does not go through a structural rupture; also recorded: No force drop was recorded
"O=C(O)CN(CCOCCOCCN(CC(=O)O)CC(=O)O)CC(=O)O [EGTA, reference compound]",rupture event of CaM under compressive force in presence of / after treatment with the substance,calmodulin (CaM),the rupture event recovers
"[K+] [K^+, reference compound]",rupture event of tau protein under compressive force in presence of the cation,tau protein,the rupture event remains
[Mg+2] [Mg^2+],rupture event of tau protein under compressive force in presence of the cation,tau protein,does not show such rupture events; also recorded: no rupture event was found; also recorded: No rupture event was observed
calmodulin [CaM],rupture threshold force,[1]; 50 nm/s approaching velocity,12 pN
same,loading energy,[1]; 100 nm/s loading velocity,4-8 kBT
same,mean rupture force,[1]; 200 nm/s loading velocity,25 pN
same,rupture threshold force,[1]; 1000 nm/s approaching velocity,35 pN
same,ΔG of rupture,[1]; Bell-Evans Model,about 25.6±7.3 kBT
B1,rupture threshold force (mean),[2]; 200 nm/s approaching/loading velocity,47 pN
same,threshold compressive force loading energy,[2]; 200 nm/s loading velocity,around 30 kBT
same,rupture threshold force,[2]; 2000 nm/s approaching velocity,75 pN
same,distance from the bound to transition state Xβ,[2]; Bell-Evans fit,0.34±0.05 nm
same,kinetic off rate constant ko,[2]; Bell-Evans fit of rupture force vs loading rate,12.2 ± 4.5 s⁻¹
same,AFM piezoelectric displacement from start of force loading to rupture,"[2]; average, FIG. 10C",5.0˜6.0 nm
same,barrier height of the transition state ΔG of protein rupture,[2]; calculated from ko,27.0±9.8 kBT
same,compressive force level reached before abrupt drop,"[2]; single force curve, FIG. 1E",about 60 pN
